These results are taken from PMC4249841.

In this test the target is Hsp70-mCherry (human, cytoplasmic, heat-inducible hsp70 (hsp72) with a C-terminal mCherry tag) (human) (UniProt P0DMV8). Description: FRET or BRET; live U2OS cells co-expressing the GFP-tagged PGK (donor) and the mCherry-tagged partner (acceptor); donor/acceptor (D/A) fluorescence ratio per cell under steady illumination, temperature titration 20°C-45°C, fitted by a two-state model. Background: In BRET a luciferase serves as donor, and the signal depends on an acceptor being close.
Chain of UniProt P0DMV8 (P0DMV8 whole entry): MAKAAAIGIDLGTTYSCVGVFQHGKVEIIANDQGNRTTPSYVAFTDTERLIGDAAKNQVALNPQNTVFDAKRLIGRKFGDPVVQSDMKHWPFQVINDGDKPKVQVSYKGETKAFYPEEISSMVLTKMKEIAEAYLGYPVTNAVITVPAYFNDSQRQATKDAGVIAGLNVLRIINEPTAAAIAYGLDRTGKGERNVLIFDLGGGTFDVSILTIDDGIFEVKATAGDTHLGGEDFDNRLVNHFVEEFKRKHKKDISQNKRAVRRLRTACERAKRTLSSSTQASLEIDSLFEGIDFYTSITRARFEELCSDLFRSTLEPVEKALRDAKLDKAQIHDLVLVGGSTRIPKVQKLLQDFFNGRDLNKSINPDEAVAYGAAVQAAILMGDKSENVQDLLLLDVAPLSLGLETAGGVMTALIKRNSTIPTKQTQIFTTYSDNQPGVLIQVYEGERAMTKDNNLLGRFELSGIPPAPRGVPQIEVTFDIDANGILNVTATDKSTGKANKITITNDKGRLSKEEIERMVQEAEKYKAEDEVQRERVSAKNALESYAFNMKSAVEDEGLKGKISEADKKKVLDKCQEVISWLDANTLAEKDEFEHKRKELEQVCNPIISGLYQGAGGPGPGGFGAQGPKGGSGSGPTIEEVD

As to “ltPGK-GFP (low melting temperature mutant of phosphoglycerate kinase, Y122W/W308F/W333F, with an N-terminal GFP tag) (enzyme)”, the temperature midpoint of binding was 39 °C and the temperature of binding onset worked out at 35 °C.
